The Kd is the constant that tells how readily two partners part at equilibrium. By koff is commonly meant the rate constant with which the complex falls apart. In general, kon refers to a measure of how fast the partners come together. A word on the t½: it is how long it takes for the measured level to halve.

Numbering of substitutions follows the chain as printed. Names and notes keep the numbering of the source.

The record followed here is patent US20160362487A1 (Regeneron, published 2016).

Test [1] deals with T1, cynomolgus monkey IL-33 expressed with a C-terminal hexahistidine tag (cynomolgus monkey).
T1 construct: also called MfIL-33-6His; Mf-IL-33-6His
T1 chain: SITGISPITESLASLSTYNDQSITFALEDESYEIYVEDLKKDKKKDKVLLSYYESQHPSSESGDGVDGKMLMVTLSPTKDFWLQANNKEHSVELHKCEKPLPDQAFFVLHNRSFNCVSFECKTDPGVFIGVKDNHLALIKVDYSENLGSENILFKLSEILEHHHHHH
The test can be described thus: BLI; mAb-1 on captured MfIL-33-6His. The procedure:
(§1) Binding competition between a panel of different anti-IL-33 monoclonal antibodies was determined using a real time, label-free bio-layer interferometry assay on an Octet® HTX biosensor (ForteBio, A Division of Pall Life Sciences). The experiment was performed at 25° C. using a buffer of 0.01M HEPES pH7.4, 0.15M NaCl, 3 mM EDTA, 0.05% v/v Surfactant Tween-20, and 0.1 mg/ml BSA (HBS-ET kinetics buffer) with the plate shaking at a speed of 1000 rpm. […] The antigen-captured biosensors were then saturated with a first anti-IL-33 monoclonal antibody (subsequently referred to as mAb-1) by immersion into wells containing 50 μg/mL solution of mAb-1 for 5 minutes. The biosensors were then dipped into wells containing a 50 μg/mL solution of a second anti-IL-33 monoclonal antibody (subsequently referred to as mAb-2) for 4 minutes. The biosensors were washed in HBS-ET kinetics buffer in between every step of the experiment. The real-time binding response was monitored during the experiment, and the maximum binding response for each binding step was recorded. The response of mAb-2 binding to MfIL-33-6His pre-complexed with mAb-1 was measured, and competitive/non-competitive behavior of different anti-IL-33 monoclonal antibodies with respect to each other was determined.
A general note: In BLI a coated tip is dipped into the sample, and binding shifts an interference pattern.

Test [2] has as its target T1, cynomolgus monkey IL-33 expressed with …. In words: SPR 37C pH7.4, mAb captured. The procedure:
(§2) Equilibrium dissociation constants (KD values) for IL-33 binding to purified anti-IL-33 monoclonal antibodies were determined using a real-time surface plasmon resonance biosensor using a Biacore 4000 instrument. The Biacore sensor surface was first derivatized by amine coupling with either a polyclonal rabbit anti-mouse antibody (GE, # BR-1008-38) or with a monoclonal mouse anti-human Fc antibody (GE, # BR-1008-39) to capture anti-IL-33 monoclonal antibodies expressed with mouse or with human IgG4 constant regions, respectively. All Biacore binding studies were performed in 0.01M ADA pH 7.4, 0.15M NaCl, 3 mM EDTA, and 0.05% v/v Surfactant Tween-20 (ABS-ET running buffer). […] Association of either hIL-33 or MfIL-33-6His to the captured monoclonal antibody was monitored for 4 minutes and their dissociation in ABS-ET running buffer was monitored for 10 minutes. The effect of reduced pH on the binding of each anti-IL-33 antibody to either hIL-33 or MfIL-33-6His was studied using an in-line pH chase assay format in 0.01M ADA pH 6.0, 0.15M NaCl, 3 mM EDTA, and 0.05% v/v Surfactant Tween-20 (ABS-ET pH6 buffer). To achieve this, association of either hIL-33 or MfIL-33-6His to the captured monoclonal antibody was monitored for 4 minutes in ABS-ET running buffer. Following a 30 second dissociation of either hIL-33 or MfIL-33-6His in ABS-ET running buffer, ABS-ET pH6 buffer was injected for 3 minutes, and the analyte dissociation under the low-pH conditions was measured. All the binding kinetic experiments were performed at both 25° C. and 37° C. Kinetic association (kₐ) and dissociation (kd) constants were determined by fitting the real-time sensorgrams to a 1:1 binding model using Scrubber 2.0c curve fitting software. Binding dissociation equilibrium constants (KD) and dissociative half-lives (t½) were calculated from the kinetic rate constants as: […]

Test [3] has the same target. In words: SPR 25C pH7.4, mAb captured. The procedure:
as §2

In test [4] the target is T2, pre-formed complex of hIL-33 and captured hST2-MMH (human, UniProt O95760 112-270).
T2 construct: Ligand-receptor complex on the sensor: hST2-MMH captured by anti-myc mAb and saturated with 100 nM hIL-33; also called hIL-33 pre-complexed with hST2-MMH
The test can be described thus: SPR 25C, 100 nM mAb over hIL-33/hST2-MMH complex. The procedure:
The ability of anti-IL-33 antibodies to bind to a pre-formed complex of IL-33 with ST2 was tested using Biacore T-200 instrument equipped with a real-time surface plasmon resonance biosensor. The experiment was performed at 25° C. with a running buffer composed of 0.01M HEPES pH 7.4, 0.15M NaCl, 3 mM EDTA, and 0.05% v/v Surfactant Tween-20 (HBS-ET). […] The captured hST2-MMH surface was then saturated by injecting 100 nM of human IL-33 (hIL-33; R&D Systems, #3625-IL-010/CF) for 3 minutes followed by a 3 minute injection of a 100 nM solution of the anti-IL-33 monoclonal antibody. The real-time binding response was monitored during the entire course of the experiment, and the observed binding response at 3 minutes after injection of anti-IL-33 antibody to the pre-formed complex of hIL-33 and captured hST2-MMH was recorded and tabulated and shown in Table 7. No non-specific binding of anti-IL-33 monoclonal antibody to the anti-myc tag capture surface was observed.

The target of test [5] is T1, cynomolgus monkey IL-33 expressed with …. The test can be described thus: BLI; captured MfIL-33-6His, mAb-1 step with Buffer. The procedure: as §1
Test [6] has as its target T3, human IL-33 (R&D Systems, #3625-IL-010/CF) (human, UniProt O95760 112-270).
T3 construct: Commercial recombinant protein; also called hIL-33; interleukin-33
T3 sequence (looked up): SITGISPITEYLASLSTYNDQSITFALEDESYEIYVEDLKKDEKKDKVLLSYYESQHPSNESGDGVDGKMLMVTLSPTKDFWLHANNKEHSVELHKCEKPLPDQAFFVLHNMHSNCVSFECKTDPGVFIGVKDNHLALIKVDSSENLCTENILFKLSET
The test can be described thus: SPR 37C pH7.4, mAb captured. The procedure:
as §2

Test [7] deals with T3, human IL-33 (R&D Systems, …). The test can be described thus: SPR 25C pH7.4, mAb captured. The procedure: as §2

B1: H1M9565N (antibody, mouse IgG1, V domains shown)
VH: QVTLKESGPVLVKPTESLTLTCSVSGFSLSNVRMGVSWIRQSPGKALEWLAHIFSNDEKSYTTSLKTRLTISKDTSRSQVVLTMTDMDPGDTATYYCARIRNLAFNYWGQGTLVTVSS
VL: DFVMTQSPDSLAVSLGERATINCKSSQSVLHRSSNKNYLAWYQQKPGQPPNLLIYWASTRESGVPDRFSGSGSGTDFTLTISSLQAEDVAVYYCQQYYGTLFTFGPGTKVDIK
notes: Human variable domains, mouse IgG1 Fc (H1M)
Take B1: the “mAb-1 Binding (nm)” value in test [1] amounted to 0.46 nm. In test [2], this molecule displayed a Kd of 2.59 nM, a koff of 0.000202 s⁻¹, a kon of 78200 M⁻¹ s⁻¹ and a t½ of 57 min. Also, in test [3], the dissociation constant Kd came out at 1.77 nM, the koff was determined as 7.2e-05 s⁻¹, the kon came to 40600 M⁻¹ s⁻¹ and the t½ is 160 min. Also, the “Antibody Binding Response (RU)” value in test [4] stood at 11 RU. The “mAb-2 Binding to the Pre-complex of mAb-1 & MfIL-33-6xHis” value (shortened to “mAb-2 Binding to the Pre-complex”) in test [5] came to 0.34 nm.

B2: H1M9568N (antibody, mouse IgG1, V domains shown)
VH: QVLLVQSGAEVKKPGATVKVSCKASGSTFTGYYMHWVRQAPGQGLEWMGWINPNNGGTNYAQKFQGRVTMTRDTSISTAYMELSRLRSDDTAVYYCARELRYNWKSWGQGTLVTVSS
VL: EIVLTQSPGTLSLSPGERVTLSCRASQSVGRPYLAWYQQIPGQAPRLLIYGASSRATDIPDRFSGNGSGTDFTLTISRLEPEDFAVYYCQQYDNSPYTFGQGTRLEIK
notes: as for B1
As to B2, the “mAb-1 Binding (nm)” value in test [1] was 0.5 nm. In test [6], this molecule showed a Kd of 1.43 nM, an off-rate constant (koff) of 0.000961 s⁻¹, a kon of 672000 M⁻¹ s⁻¹ and a t½ of 12 min. In test [2], this molecule displayed a Kd of 4.46 nM, a koff of 0.00173 s⁻¹, a kon of 389000 M⁻¹ s⁻¹ and a t½ of 7 min. In test [7], this molecule registered a Kd of 0.184 nM, an off-rate (koff) of 0.00013 s⁻¹, a kon of 702000 M⁻¹ s⁻¹ and a t½ of 89 min. Also, in test [3], binding was characterised by a dissociation constant (Kd) of 1.07 nM, the koff came out at 0.000261 s⁻¹, the association rate constant (kon) was 244000 M⁻¹ s⁻¹ and the t½ came out at 44 min. For the same molecule, the “Antibody Binding Response (RU)” value in test [4] was found to be 131 RU. Besides, the “mAb-2 Binding to the Pre-complex” value in test [5] came out at 0.37 nm.

B3: H1M9566N (antibody, mouse IgG1, V domains shown)
VH: EVQLLESGGDLVQPGGSLRLSCAASGFTFSSYAMSWVRQAPGKGLEWVSVISGSGSSTDYADSVKGRFTISRDNSRDTLHLQMNSLRAEDTAVYYCAKTFYYFYGLDVWGQGTTVTVSS
VL: DIQMTQSPSSLSASLRDRVTITCRASQGISNYLAWYQQKPGKVPKVLIYAASTLQSGVPSRFSGSGSGTVFTLTISSLQTEDVATYYCQKYSSAPFTFGPGTKVDIK
notes: as for B1
For the molecule B3, the “mAb-1 Binding (nm)” value in test [1] was 0.58 nm. In test [6], the Kd amounted to 1.7 nM, the dissociation rate constant (koff) amounted to 0.000283 s⁻¹, the kon was determined as 166000 M⁻¹ s⁻¹ and the t½ is 41 min. In test [2], this molecule displayed an equilibrium dissociation constant (Kd) of 1 nM, a koff of 0.0004 s⁻¹, an association rate constant (kon) of 399000 M⁻¹ s⁻¹ and a t½ of 29 min. The kon in test [7] turned out to be 127000 M⁻¹ s⁻¹. In test [3], this molecule showed a Kd of 0.333 nM, a koff of 9.75e-05 s⁻¹, a kon of 293000 M⁻¹ s⁻¹ and a t½ of 119 min. Further, in test [4], the “Antibody Binding Response (RU)” value amounted to 13 RU. Moreover, in test [5], the “mAb-2 Binding to the Pre-complex” value is 0.39 nm.

B4: H4H9629P (antibody, human IgG4, V domains shown)
VH: EVQLVESGGGLVQPGGSLRLSCAASGFTFRSFAMSWVRQAPGKGLELVSDLRTSGGSTYYADSVKGRLTISRDNSKNTLYLQMNSLRAEDTAVYYCAKSHYSTSWFGGFDYWGQGTLVTVSS
VL: DIQMTQSPSSVSASVGDRVTITCRASQGFSSWLAWYQQKPGKAPKLLIYAASSLQSGVPSRFSGSGSGTDFTLTITNLQPEDFATYYCQQANSFPLTFGGGTKVEIK
notes: Human IgG4 Fc (H4H)
For B4, in test [1], the “mAb-1 Binding (nm)” value came to 0.72 nm. In test [6], this molecule came in with a Kd of 0.508 nM, a koff of 0.000646 s⁻¹, a kon of 1.27e+06 M⁻¹ s⁻¹ and a t½ of 18 min. In test [2], binding was put at a Kd of 32.4 nM, the koff was determined as 0.0347 s⁻¹, the kon amounted to 1.07e+06 M⁻¹ s⁻¹ and the t½ worked out at 0.3 min. In test [7], this molecule registered a Kd of 0.29 nM, an off-rate constant (koff) of 0.000226 s⁻¹, a kon of 777000 M⁻¹ s⁻¹ and a t½ of 51 min. In test [3], binding was put at a Kd of 23.9 nM, the koff was 0.0135 s⁻¹, the kon stood at 562000 M⁻¹ s⁻¹ and the t½ is 0.9 min. In addition, the “Antibody Binding Response (RU)” value in test [4] was -1 RU. Besides, the “mAb-2 Binding to the Pre-complex” value in test [5] came out at 0.3 nm.

B5: H4H9633P (antibody, human IgG4, V domains shown)
VH: EVQLVESGGGLVQPGGSLRLSCAASGFTFSSYVMSWVRQAPGKGLEWVSSISGNGGSTNYADSVKGRFTISRDNSKNTLFLEMNSLRAEDTAVYYCAKSLGTTTTFLGFDYWGQGTLVTVSS
VL: B4 VL with F29I, D70Y, T76S, N77S
notes: Human IgG4 Fc (H4H)
As to B5, the “mAb-1 Binding (nm)” value in test [1] stood at 0.64 nm. In test [6], this molecule came in with a Kd of 0.931 nM, a koff of 0.000689 s⁻¹, a kon of 740000 M⁻¹ s⁻¹ and a t½ of 17 min. Besides, in test [2], the Kd was 48.6 nM, the koff is 0.0227 s⁻¹, the kon was found to be 468000 M⁻¹ s⁻¹ and the t½ worked out at 0.5 min. In test [7], this molecule had a dissociation constant Kd of 0.432 nM, a koff of 0.000283 s⁻¹, a kon of 656000 M⁻¹ s⁻¹ and a t½ of 41 min. In test [3], this molecule gave a Kd of 38 nM, a koff of 0.00997 s⁻¹, a kon of 262000 M⁻¹ s⁻¹ and a t½ of 1.2 min. In addition, the “Antibody Binding Response (RU)” value in test [4] is -1 RU. The “mAb-2 Binding to the Pre-complex” value in test [5] worked out at 0.32 nm.
